B1: AsGGT3 (Allium sativum) (protein)
chain: MLINSYPAYHCFPHTEEFHQNFMPAYITKWLAVTLLLLVFYKPILAGDEIRHRREVITSKNGAVASDDGRCSVIGTDVLKEGGNAIDAAVAASFCLGVVSAASSGIGGGAFMLIRMANGEAHAIDMRETAPLHASQNMYNGNAILKGSGILSVAVPGEIAGLHKAWKQHGKLPWKRLVMPAAKIAKAGFEISKYLYMQMNRTKSEILKDKGMQDIYASNGTLLNPGDICRNKELACTLREIAVHGPKVFYNGSVGIKLVKDIQKLGGILTLNDLKNYRVKVNKPISANVMGYEILGMPPPSSGGAGMILILNILAQYGIPSGVSGSLGLHRFIESLKHMMAIRMNLGDPEFVNVSQVLSEMLSPKFAEDLKKRIYDNMTFDPSYYGPKWNLVNDHGTSHLSIVDSERNAVSMTSTVNSYFGAGIVSPSTGIVLNNEMDDFSIPSNSSNNNMPPPAPANFIAPLKRPLSSMSPTVVLKDGKLVASLGASGGGMIIAAATHIFLKLFAEKLDPLASALSPRSYHQLIPNVVQYEDWMTVIGDHFLVAEKERAALEKKGHVLKPLAGGTICQFVIQGADDAKELGLGIANGDLMAISDPRKGGIPDGY
notes: full-length coding region (605 aa), no tag, pYES2 in Saccharomyces cerevisiae BJ2168, crude yeast protein extract
B2: AsGGT1 (Allium sativum) (protein)
chain: MNQMAPASSDQKLGTSLIVRENSTDRRFALHWILILAALTTLFALGLHLSSVQYRGSEELGEFRKGLKSTGGSDAVESEKGVVAADDGYCSEIGASVLRKGGHAVDAVVATAICEGVRHPMSSGIGGGAFMVVRSAKDGKALAFDARETAPLAASKDMYQNNPLAKSLGPLSMGIPGEIAGLHAAWLLYGKLPWKSLFEPSITLLKNGVKIEPYLALSINDNKDKIMSDPGLAEVFAPNGKLLQLNDTFYNFKLADSLEAIAEEGPQAFYNGSIGQKFIQDIRNLGGIVTMNDMRKYTVEITEPLYSDVLGYTLVGMPLPSSGTLGVSMVLNILGSYETLNAMKGFHGLHRLIEAVKHTLAIRMNLGDSKFVNCTKYVDDMLSPTYAEQVKERIFDNTTFDPSYYLNRWSQIRDHGTSHMSIVDSERNAVAFTSTVNMYFGGGVMSPSTGIVANNEMDDFSIPTDATEDGLPPAPSNFIEPNKRPLSSMSPLIILKDNQLAGVLGASGGMNIIPAVSQVFINHFVLGVDPLKAVQHPRFYHTLIPNLVQYENWTALDGELFEFSEAAKEFLAKRNHQLQMKSGAGAVCQFVVQNLTSSNSNKETDGIIRGMLTAVSDPRKDGSPACV
notes: full-length coding region (627 aa), no tag, pYES2 in Saccharomyces cerevisiae BJ2168, crude yeast protein extract
B3: AsGGT2 (Allium sativum) (protein)
chain: MEPAHDDLESSLLRYRPLHNDHTTVRRYPIIIIVATFVVFGLLFSIQFNLDNSERVYELKTKSGGEVVQSEVGVVAADDGYCSETGASILRKGGHAVDALVATAICEGIRHPMSSGIGGGAFIVVRSAKDGKAFAFDARETAPIASSRDMYQNNHSDKCLGPLSIGIPGEVAGLHAIWKMYGKLPWKSLFQPSIDLLRNGFKIVPYLDMSIREHADKILSDPGLREVFAPNGRLLRLNDTLYNYRLVNSLETIAREGPQALYSGSIGEKFIQDVRDLGGIITMDDMENYKVEVTEALSGNALGYTIIGMPPPSTGTVGISMVLNILGSYKTLDAVKGLIGIHRLIEAIKHTLGMRMNLGDPNFVNITEYVNDMLSPTYAEKVKERIFDNTTFDLSYYSNKWSQLSDHGTSHVSIVDSERNAVSFTSTINEYFGAGVMSPATGIIANNEMCDFATPTDETVDDIPPAPTNFIEPNKRPLSSMSPLIILKDDNLAGVIGASGGMNIIPAIAQVLINYFILGMDPLKAVQYPRFYHRFTPNVVLYENYTAVNGENFMFPEAAIKFLEERHHQLQMKAGVAAVCQFVVQNLTESGSSNANMKNGGHLRGMLTAVSDPRKDGSPACV
notes: full-length coding region (622 aa), no tag, pYES2 in Saccharomyces cerevisiae BJ2168, crude yeast protein extract

The term Km denotes the substrate concentration at which the rate is half of its maximum.

Substrate in the series: C=CCSC[C@H](NC(=O)CC[C@H](N)C(=O)O)C(=O)O
The series is described as follows: HPLC of S-allyl-L-cysteine formed, crude yeast extract. Format: biochemical, Allium sativum. Particulars: 10 mM glycylglycine as acceptor, 50 mM Tris-HCl pH 8.0 (standard assay), 37°C, 6 h.
Consider B1, for which the Michaelis constant (Km) is reported as 9.4 mM. Next, B2: 0.086 mM; B3: 1.1 mM.

The record behind these values is article PMC4288057, “Garlic γ-glutamyl transpeptidases that catalyze deglutamylation of biosynthetic intermediate of alliin” (Frontiers in Plant Science, 2015).
